In this data set the target is UCM12.
Sequence of UCM12 (chain, as listed by the source, chain 1 of 3, other chains not shown): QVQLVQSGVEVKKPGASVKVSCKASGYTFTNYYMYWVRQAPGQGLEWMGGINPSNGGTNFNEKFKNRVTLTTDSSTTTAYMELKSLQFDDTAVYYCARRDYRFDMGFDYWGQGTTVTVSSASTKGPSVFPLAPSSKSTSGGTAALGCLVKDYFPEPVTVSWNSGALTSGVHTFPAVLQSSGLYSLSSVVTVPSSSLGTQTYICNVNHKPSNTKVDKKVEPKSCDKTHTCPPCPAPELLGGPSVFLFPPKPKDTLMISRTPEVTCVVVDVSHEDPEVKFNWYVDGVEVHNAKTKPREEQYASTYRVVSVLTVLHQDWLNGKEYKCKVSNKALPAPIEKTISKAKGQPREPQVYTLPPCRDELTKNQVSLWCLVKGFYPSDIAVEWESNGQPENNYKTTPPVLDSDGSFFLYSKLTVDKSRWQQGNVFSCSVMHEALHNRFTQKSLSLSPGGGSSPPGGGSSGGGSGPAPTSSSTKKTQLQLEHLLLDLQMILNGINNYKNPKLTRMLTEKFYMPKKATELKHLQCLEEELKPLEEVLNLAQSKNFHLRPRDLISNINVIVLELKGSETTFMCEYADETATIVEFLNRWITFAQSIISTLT
Sequence of UCM12 (chain, as listed by the source, chain 2 of 3, other chains not shown): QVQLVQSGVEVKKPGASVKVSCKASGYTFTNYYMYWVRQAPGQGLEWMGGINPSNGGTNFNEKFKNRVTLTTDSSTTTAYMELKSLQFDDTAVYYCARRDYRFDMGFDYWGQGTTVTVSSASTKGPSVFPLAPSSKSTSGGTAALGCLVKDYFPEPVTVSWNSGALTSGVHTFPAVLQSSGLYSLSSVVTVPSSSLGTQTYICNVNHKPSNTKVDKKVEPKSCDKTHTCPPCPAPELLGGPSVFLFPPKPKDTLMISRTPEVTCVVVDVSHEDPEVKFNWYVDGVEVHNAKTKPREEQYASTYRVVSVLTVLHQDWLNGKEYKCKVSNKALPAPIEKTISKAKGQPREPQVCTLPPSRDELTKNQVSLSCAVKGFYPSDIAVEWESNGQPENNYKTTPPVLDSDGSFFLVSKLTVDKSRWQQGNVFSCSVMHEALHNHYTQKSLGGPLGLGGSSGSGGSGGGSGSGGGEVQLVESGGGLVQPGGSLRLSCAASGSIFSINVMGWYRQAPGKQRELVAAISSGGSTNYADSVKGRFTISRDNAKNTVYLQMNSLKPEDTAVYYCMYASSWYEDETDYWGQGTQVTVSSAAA

B1: Matrix Metalloproteinase 1 (protein)
chain: FVLTEGNPRWEQTHLTYRIENYTPDLPRADVDHAIEKAFQLWSNVTPLTFTKVSEGQADIMISFVRGDHRDNSPFDGPGGNLAHAFQPGPGIGGDAHFDEDERWTNNFREYNLHRVAAHELGHSLGLSHSTDIGALMYPSYTFSGDVQLAQDDIDGIQAIYGRSQNPVQPIGPQTPKACDSKLTFDAITTIRGEVMFFKDRFYMRTNPFYPEVELNFISVFWPQLPNGLEAAYEFADRDEVRFFKGNKYWAVQGQNVLHGYPKDIYSSFGFPRTVKHIDAALSEENTGKTYFFVANKYWRYDEYKRSMDPGYPKMIAHDFPGIGHKVDAVFMKDGFFYFFHGTRQYKFDPKTKRILTLQKANSWFNCRKN
For B1, the kcat/Km was found to be 230 M⁻¹ s⁻¹.

B2: MMP2 (protein)
chain: YNFFPRKPKWDKNQITYRIIGYTPDLDPETVDDAFARAFQVWSDVTPLRFSRIHDGEADIMINFGRWEHGDGYPFDGKDGLLAHAFAPGTGVGGDSHFDDDELWTLGEGQVVRVKYGNADGEYCKFPFLFNGKEYNSCTDTGRSDGFLWCSTTYNFEKDGKYGFCPHEALFTMGGNAEGQPCKFPFRFQGTSYDSCTTEGRTDGYRWCGTTEDYDRDKKYGFCPETAMSTVGGNSEGAPCVFPFTFLGNKYESCTSAGRSDGKMWCATTANYDDDRKWGFCPDQGYSLFLVAAHEFGHAMGLEHSQDPGALMAPIYTYTKNFRLSQDDIKGIQELYGASPDIDLGTGPTPTLGPVTPEICKQDIVFDGIAQIRGEIFFFKDRFIWRTVTPRDKPMGPLLVATFWPELPEKIDAVYEAPQEEKAVFFAGNEYWIYSASTLERGYPKPLTSLGLPPDVQRVDAAFNWSKNKKTYIFAGDKFWRYNEVKKKMDPGFPKLIADAWNAIPDNLDAVVDLQGGGHSYFFKGAYYLKLENQSLKSVKFGSIKSDWLGC
B2: the kcat/Km was determined as 1900 M⁻¹ s⁻¹.

What is called kcat/Km is the turnover number divided by the Michaelis constant.
